Data on 1 substance can be found in publication PMC10371251.

The series concerns FLAG-cGAS (Homo sapiens). In words: pull-down (streptavidin, Western blot; ligand transfected into HEK293T 2 h). Conditions: 5' or 3' position of biotin not stated, forward strand biotinylated, reverse unmodified, HEK293T transfected with 4 ug/mL biotin-ISD45 for 2 h, then streptavidin IP, IP buffer, pH and temperature not in the material (oligo annealing: 5 mM Tris pH 7.).

biotinylated ISD45: the binding signal (fold of empty vector) reads like this: (WT SRC-HA coexpressed) 0.466; (empty vector, no SRC-HA, non-biotinylated ISD45 background 0.1436) 1.
